Values quoted from earlier work as cited in article PMC3376167.

Molecular target: ARNT PAS-B (Homo sapiens) (UniProt P27540)
Sequence (P27540 356-470): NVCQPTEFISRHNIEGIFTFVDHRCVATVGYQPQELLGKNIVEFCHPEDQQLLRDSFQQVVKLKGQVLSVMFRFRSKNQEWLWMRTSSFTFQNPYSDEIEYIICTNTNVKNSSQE

HIF-2α PAS-B, sequence (Q99814 239-350): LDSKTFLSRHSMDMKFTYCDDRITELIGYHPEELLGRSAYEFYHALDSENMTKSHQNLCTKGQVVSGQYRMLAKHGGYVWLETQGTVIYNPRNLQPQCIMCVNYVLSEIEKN

Kd: 120 µM
Substance: HIF-2α PAS-B (from UniProt Q99814)
